The record followed here is patent publication US20240141027A1 (BIOARCTIC, published 2024).

The target in test [1] is T1, mTfR1 expressed on cell surfaces of Immortalized Mouse Cerebral Capillary Endothelial Cells (cEND) (mouse, UniProt Q62351 1-763).
T1 construct: whole, on cells; also called mTfR1 on cEND cells
In words: flow cytometry on cEND cells, 100 nM, 4° C., anti-mouse IgG-PE. The protocol:
Binding and uptake mediated by TfR1 was measured on Immortalized Mouse Cerebral Capillary Endothelial Cells (cEND) (ABM, #T0290).
The pellet was resuspended in PBS and 200,000 cells per well were seeded in U-bottom 96-well Corning plates for flow cytometry staining. Cells were then washed with PBS and incubated with 100 nM of one of the mAb158-8D3 constructs mAb158-scLc-8D3-Ig.1, mAb158-scLc-8D3-Ig.2 and mAb158-scLc-8D3-Ig.3, control 8D3 IgG (light chain of SEQ ID NO:17, heavy chain of SEQ ID NO:19) or murine IgG control for 45 min at 4° C. After primary incubation, cells were washed twice with ice cold PBS, and mAb158-8D3 constructs were captured using a fluorescently labeled secondary anti-mouse IgG-PE antibody (BD Biosciences, 550589). After incubation, cells were washed twice with PBS and resuspended in 200 μl PBS. Cells were acquired in a BD FACSLyric flow cytometer system (BD Biosciences) and samples were analyzed using FCS Express software (De Novo Software).
(In general: A flow cytometer gives signals particle by particle.)

The target of test [2] is T2, recombinant murine transferrin receptor 1 (mTfR1), extracellular domain fused to a His-tag (murine, UniProt Q62351 89-763).
T2 construct: Position of the His-tag (N or C) unknown; also called recombinant mTfR1; murine TfR1; not shown: His-tag
In words: indirect ELISA, plates coated with recombinant mTfR1. The protocol:
Binding of selected expressed constructs to mTfR1 was assessed by indirect ELISA (FIG. 4). In brief, half area 96-well plates (Corning, #3690) were coated with 1 μg/ml recombinant mTfR1, produced as described in Example 4, in PBS overnight at 4° C. The coated plates were blocked using Pierce protein-free blocking solution (Thermo Fisher Scientific, #37572) for 1 h at room temperature with shaking and washed four times in PBS containing 0.1% TWEEN-20. Serial dilutions (1:3) of expressed constructs in incubation buffer (1% BSA, 0.1% TWEEN-20 in PBS) were incubated for 1 h at room temperature. Following the four wash steps, bound test constructs were detected by addition of anti-mouse-IgG F(ab′)2-HRP antibody (Jackson Immuno Research, #115-035-006) at 1:1250 dilution in incubation buffer (1 h, room temperature). Following four wash steps, K-Blue® Aqueous TMB substrate (Neogen, #331177) was added to the wells for 15 min at room temperature before the reaction was stopped with 1:1 dilution of 0.5 M H₂SO₄. The optical density at 450 nm was recorded (Spark, Tecan) and background signal was subtracted before analysis.
(In general: An ELISA detects its analyte on a solid surface through an enzyme-linked reagent.)

The target in test [3] is T2, recombinant murine transferrin receptor …. In words: SPR (Biacore 8K), mTfR1 amine-coupled on CM5 chip, single cycle kinetics. The method, then: Monovalent binding interaction for mAb158-scLc-8D3-Ig.8 against murine TfR1 was measured using surface plasmon resonance (Biacore 8K, Cytiva). A Cm5 sensor chip (Cytiva, #BR100399) was immobilized with 3 μg/ml of mTfR1 using the amine coupling kit type 2 (Cytiva, #BR100633) according to the manufacturer's instruction. A 2-fold dilution series in HBS-EP+(Cytiva, #BR100669) starting at 50 nM of analyte was injected in duplicates over the immobilized ligand and the interaction was measured using the single cycle kinetics method with a contact time of 160 s at a flow rate of […] followed by a dissociation time of 1000 s.
In general terms: Surface plasmon resonance follows binding to a sensor surface in real time, without labels.

T2 sequence (Q62351 89-763): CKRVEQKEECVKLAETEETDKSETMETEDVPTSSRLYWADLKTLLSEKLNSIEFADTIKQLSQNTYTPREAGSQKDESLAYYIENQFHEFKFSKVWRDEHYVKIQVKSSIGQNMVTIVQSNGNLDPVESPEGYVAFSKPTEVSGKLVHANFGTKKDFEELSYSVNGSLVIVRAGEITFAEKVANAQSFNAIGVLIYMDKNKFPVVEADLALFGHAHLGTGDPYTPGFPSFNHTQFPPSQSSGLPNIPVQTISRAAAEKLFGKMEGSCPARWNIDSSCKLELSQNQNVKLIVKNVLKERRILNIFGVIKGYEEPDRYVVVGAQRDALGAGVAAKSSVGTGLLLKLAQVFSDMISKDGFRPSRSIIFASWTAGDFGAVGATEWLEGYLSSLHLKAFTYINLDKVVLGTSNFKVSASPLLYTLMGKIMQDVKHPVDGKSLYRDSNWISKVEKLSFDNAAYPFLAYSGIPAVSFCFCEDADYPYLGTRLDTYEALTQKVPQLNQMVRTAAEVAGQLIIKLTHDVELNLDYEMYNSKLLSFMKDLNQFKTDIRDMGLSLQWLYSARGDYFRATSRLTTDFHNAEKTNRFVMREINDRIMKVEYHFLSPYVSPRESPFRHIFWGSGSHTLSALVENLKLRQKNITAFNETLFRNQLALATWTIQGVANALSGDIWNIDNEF
T1 sequence (Q62351 whole entry): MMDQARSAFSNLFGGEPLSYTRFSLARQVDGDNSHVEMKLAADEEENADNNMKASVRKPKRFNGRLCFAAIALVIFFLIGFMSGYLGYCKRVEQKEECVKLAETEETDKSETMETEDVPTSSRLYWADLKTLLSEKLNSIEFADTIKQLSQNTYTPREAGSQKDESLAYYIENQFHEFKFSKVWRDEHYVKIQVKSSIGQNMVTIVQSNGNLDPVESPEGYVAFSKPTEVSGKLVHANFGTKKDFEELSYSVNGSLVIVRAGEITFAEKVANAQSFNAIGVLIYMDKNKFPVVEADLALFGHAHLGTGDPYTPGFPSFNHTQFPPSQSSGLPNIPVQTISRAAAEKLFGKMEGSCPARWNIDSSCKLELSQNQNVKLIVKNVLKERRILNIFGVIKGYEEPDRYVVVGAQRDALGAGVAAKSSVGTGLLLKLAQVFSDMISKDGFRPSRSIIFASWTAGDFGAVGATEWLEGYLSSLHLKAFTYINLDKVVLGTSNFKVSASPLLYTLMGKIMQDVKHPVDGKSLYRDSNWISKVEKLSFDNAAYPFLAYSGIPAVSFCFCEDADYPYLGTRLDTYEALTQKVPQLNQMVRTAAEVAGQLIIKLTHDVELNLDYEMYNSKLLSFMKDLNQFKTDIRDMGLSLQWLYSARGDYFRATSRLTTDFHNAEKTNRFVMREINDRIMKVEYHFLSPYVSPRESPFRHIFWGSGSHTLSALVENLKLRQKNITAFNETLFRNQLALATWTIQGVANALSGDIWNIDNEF

B1: mAb158-scLc-8D3-Ig.3 (bispecific antibody, human IgG1, kappa)
heavy: not shown
chain: DIVMTQAPLSLPVSLGDQASISCRSSQSIVHSNGNTYLEWYLQKPGQSPKLLIYKVSNRFSGVPDRFSGSGSGTDFTLKISRVEAEDLGIYYCFQGSHVPPTFGGGTKLEIKRADAAPTVSIFPPSSEQLTSGGASVVCFLNNFYPKDINVKWKIDGSERQNGVLNSWTDQDSKDSTYSMSSTLTLTKDEYERHNSYTCEATHKTSTSPIVKSFNRNECGGSSGSGSGSTGTSSSGTGTSAGTTGTSASTSGSGSEVQLVESGGGLVQPGNSLTLSCVASGFTFSNYGMHWIRQAPKKGLEWIAMIYYDSSKMNYADTVKGRFTISRDNSKNTLYLEMNSLRSEDTAMYYCAVPTSHYVVDVWGQGVSVTVSSGGGGSGGGGSGGGGSDIQMTQSPASLSASLEEIVTITCQASQDIGNWLAWYQQKPGKSPQLLIYGATSLADGVPSRFSGSRSGTQFSLKISRVQVEDIGIYYCLQAYNTPWTFGGGTKLELKRGGSSGSGSGSTGTSSSGTGTSAGTTGTSASTSGSGSGGSSGSGSGSTGTSSSGTGTSAGTTGTSASTSGSGSDIVMTQAPLSLPVSLGDQASISCRSSQSIVHSNGNTYLEWYLQKPGQSPKLLIYKVSNRFSGVPDRFSGSGSGTDFTLKISRVEAEDLGIYYCFQGSHVPPTFGGGTKLEIKRADAAPTVSIFPPSSEQLTSGGASVVCFLNNFYPKDINVKWKIDGSERQNGVLNSWTDQDSKDSTYSMSSTLTLTKDEYERHNSYTCEATHKTSTSPIVKSFNRNEC
notes: Format [LC-L1-scBM-L2-LC]
For the molecule B1, the binding result in test [1] and in test [2] was “binds” in each case.

B2: mAb158-scLc-8D3-Ig.2 (bispecific antibody, human IgG1, kappa)
heavy: not shown
chain: DIVMTQAPLSLPVSLGDQASISCRSSQSIVHSNGNTYLEWYLQKPGQSPKLLIYKVSNRFSGVPDRFSGSGSGTDFTLKISRVEAEDLGIYYCFQGSHVPPTFGGGTKLEIKRADAAPTVSIFPPSSEQLTSGGASVVCFLNNFYPKDINVKWKIDGSERQNGVLNSWTDQDSKDSTYSMSSTLTLTKDEYERHNSYTCEATHKTSTSPIVKSFNRNECGGGGSGGGGSGGGGSGGGGSGGGGSEVQLVESGGGLVQPGNSLTLSCVASGFTFSNYGMHWIRQAPKKGLEWIAMIYYDSSKMNYADTVKGRFTISRDNSKNTLYLEMNSLRSEDTAMYYCAVPTSHYVVDVWGQGVSVTVSSGGGGSGGGGSGGGGSDIQMTQSPASLSASLEEIVTITCQASQDIGNWLAWYQQKPGKSPQLLIYGATSLADGVPSRFSGSRSGTQFSLKISRVQVEDIGIYYCLQAYNTPWTFGGGTKLELKRGGGGSGGGGSGGGGSGGGGSGGGGSDIVMTQAPLSLPVSLGDQASISCRSSQSIVHSNGNTYLEWYLQKPGQSPKLLIYKVSNRFSGVPDRFSGSGSGTDFTLKISRVEAEDLGIYYCFQGSHVPPTFGGGTKLEIKRADAAPTVSIFPPSSEQLTSGGASVVCFLNNFYPKDINVKWKIDGSERQNGVLNSWTDQDSKDSTYSMSSTLTLTKDEYERHNSYTCEATHKTSTSPIVKSFNRNEC
notes: Format [LC-L1-scBM-L2-LC]
In the case of B2, the binding result in test [1] and in test [2] was “binds” throughout.

B3: 8D3 Fab (Fab, V domains shown)
VH: EVQLVESGGGLVQPGNSLTLSCVASGFTFSNYGMHWIRQAPKKGLEWIAMIYYDSSKMNYADTVKGRFTISRDNSKNTLYLEMNSLRSEDTAMYYCAVPTSHYVVDVWGQGVSVTVSS
VL: DIQMTQSPASLSASLEEIVTITCQASQDIGNWLAWYQQKPGKSPQLLIYGATSLADGVPSRFSGSRSGTQFSLKISRVQVEDIGIYYCLQAYNTPWTFGGGTKLELKR
notes: Anti-mouse TfR1 control; also called monovalent 8D3 Fab control; monovalent 8D3 Fab
For B3, in test [3], the binding result is reported as “binds”.
